# Laboratory results: patent US20160237419
# System: supercharged variant of human trypsinogen-1 (PRSS1 sc)
# Sequence (chain, as listed by the source mutant): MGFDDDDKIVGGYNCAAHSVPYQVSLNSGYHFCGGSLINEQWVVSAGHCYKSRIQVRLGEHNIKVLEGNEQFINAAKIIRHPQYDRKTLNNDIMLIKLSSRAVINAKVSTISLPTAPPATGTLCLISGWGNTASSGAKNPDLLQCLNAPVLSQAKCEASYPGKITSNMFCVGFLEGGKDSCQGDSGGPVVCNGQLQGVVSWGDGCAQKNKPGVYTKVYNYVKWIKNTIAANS
substance,measurement,value
trypsin,autoactivation (trypsin activity on CBZ-GPR-pNA after incubation with trypsin),PRSS1 sc (SEQ ID NO 01) does not show a significant autoactivation
